Reference: article PMC3303121 (Nature, 2012)

Biological target: A2A adenosine receptor A2AAR N154Q (residues 1-316) (Homo sapiens, UniProt P29274, N154Q)
Experiment: SPR

Chain of A2A adenosine receptor A2AAR N154Q (residues 1-316) (P29274 1-316 N154Q): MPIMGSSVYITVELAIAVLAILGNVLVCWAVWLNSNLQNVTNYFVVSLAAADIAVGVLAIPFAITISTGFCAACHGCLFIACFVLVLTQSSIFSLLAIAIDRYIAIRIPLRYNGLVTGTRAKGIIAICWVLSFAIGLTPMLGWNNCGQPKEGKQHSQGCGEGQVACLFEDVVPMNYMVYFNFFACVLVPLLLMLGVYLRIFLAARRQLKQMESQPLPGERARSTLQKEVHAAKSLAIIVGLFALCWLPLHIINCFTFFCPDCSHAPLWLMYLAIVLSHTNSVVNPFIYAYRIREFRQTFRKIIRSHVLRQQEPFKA

Kd: 4.4 nM
B1: Fab2838, Fab fragment of mouse monoclonal antibody IgG2838 (Fab, V domains shown)
VH: EVQLQQSGAELVKPGSSVKISCKTSGDSFTAYNMNWVKQSHGKSLEWIGNINPYYGSTRYNQKFKGKATLTVDKSSSTAYIQLNSLTSEDSAVYYCAREGNYYDGGSVRYFDYWGQGTTLTVSS
VL: DIVMTQSPASLSASVGDTVTITCRASEFIYSSLTWYQQKQGGSPQLLVYAATNLADAVPSRFSGSGSGTQFSLKINRLQPEDFGTYYCQHFYGSTWAFGGGTKLEIK
